In one assay the target is R5A11/IL-10Rα complex (human (by the printed UniProt entry …, UniProt P22301 19-178; Q13651 22-235). In words: SPR; pre-bound to IL-10Rα. On the technique in general: SPR reads the build-up and loss of mass on a sensor chip optically.
The next assay concerns the target A11/IL-10Rα complex (human (by the printed UniProt entry …, UniProt P22301 19-178; Q13651 22-235). The assay is described as follows: SPR; pre-bound to IL-10Rα.
The target of another assay is B11/IL-10Rα complex (human (by the printed UniProt entry …, UniProt P22301 19-178; Q13651 22-235). In words: SPR; pre-bound to IL-10Rα.
Assay [1] has as its target IL-10 variant B11, recombinant monomer (human (by the printed UniProt entry …, UniProt P22301 19-178)). The assay is described as follows: SPR.
In assay [2] the target is IL-10 variant A11, recombinant monomer (human (by the printed UniProt entry …, UniProt P22301 19-178)). In words: SPR.
Assay [3] deals with high affinity IL-10 monomer R5A11M, recombinant (human (by the printed UniProt entry …, UniProt P22301 19-178)). The assay is described as follows: SPR.

As usually defined, the Kd is the equilibrium constant for the complex coming apart.

B1: IL-10Rβ ectodomain (amino acids 20-220), biotinylated (receptor)
chain: MVPPPENVRMNSVNFKNILQWESPAFAKGNLTFTAQYLSYRIFQDKCMNTTLTECDFSSLSKYGDHTLRVRAEFADEHSDWVNITFCPVDDTIIGPPGMQVEVLADSLHMRFLAPKIENEYETWTMKNVYNSWTYNVQYWKNGTDEKFQITPQYDFEVLRNLEPWTTYCVQVRGFLPDRNKAGEWSEPVCEQTTHDETVPS
modifications: biotin on the biotin acceptor peptide (BirA ligase)
As to B1, the Kd in the assay with R5A11/IL-10Rα complex came out at 100 nM; in the assay with A11/IL-10Rα complex, 23 nM; in the assay with B11/IL-10Rα complex, 65 nM; in assay [1], 9400 nM; in assay [2], 2400 nM; in assay [3], 8900 nM.

For the origin of these results see doi:10.1101/2020.03.10.985069 (2020).
